# Laboratory results: PMC4768215, “Targeting surface-layer proteins with single-domain antibodies: a potential therapeutic approach against Clostridium difficile-associated disease” (Applied Microbiology and Biotechnology, 2015)
# B1: SLP_VHH50 (VHH)
# VHH: QVKLEESGGGLVQPGGSLRLSCAASGFTLDYYTIGWFRQAPGKEREGVACISSDDRTYYVDSVKGRFAISRDNVKNTVYLQMNNLKPEDTAVYYCASKESVFLIATMKGCAPGHDDYWGQGTQVTVSS
# notes: From an immune llama phage display library panned on QCD-32g58 SLP; source: monomeric SEC fractions for SPR; not shown: His6, C-terminal, kept
# B2: SLP_VHH22 (VHH)
# VHH: QVQLVESGGGLVQPGGSLRLSCAASGFTLDSYAIGWFRQAPGKEHEGISCISSNGGSTYYTDSVKGRFTISRDNAKNTVYLQMNSLESEDSAVYYCATVRRCSSLDMALGALATRTKGYDYWGQGTQVTVSS
# notes: as for B1
# B3: SLP_VHH26 (VHH)
# VHH: QVKLEESGGGLVQAGGSLRLSCAASGRTFTNYAMAWFRQASGKEREFVAIISQSGGRTYYGDSVKGRFTISRDNAKNTVYLQLNSLQPEDTGVYYCAAGDSPYYYSRSRYDLWGPGTQVTVSS
# notes: as for B1
# Legend:
# [1] = molecular target: T1, QCD-32g58 SLP (surface layer protein of C. difficile strain QCD-32g58, HMW and LMW subunits) (Clostridioides difficile QCD-32g58 …, UniProt A0A9R0BMB3, strain); experiment: SPR; Biacore 3000; SEC-purified QCD-32g58 SLP amine-coupled to a CM5 chip, VHH monomer fractions injected at various concentrations; 25 °C, 10 mM HEPES pH 7.4, 150 mM NaCl, 3 mM EDTA, 0.005 % P20; KD by steady-state analysis; details: both partners purified
# T1 construct: low-molecular-weight (LMW) subunit of the surface layer protein, cut from the precursor SlpA by Cwp84, C. difficile strain QCD-32g58 (ribotype 027); predicted mass 33.9 kDa; high-molecular-weight (HMW) subunit of the surface layer protein, cut from the precursor SlpA by Cwp84, C. difficile strain QCD-32g58 (ribotype 027); predicted mass 44.2 kDa; Both subunits come from one precursor, SlpA; also …
# [2] = molecular target: T2, 630 SLP (surface layer protein of C. difficile strain 630, HMW and LMW subunits) (Clostridioides difficile 630 (ribotype …, UniProt Q183M8, strain)); experiment: SPR; Biacore 3000; 630 SLP immobilised on a CM5 chip, VHHs injected at various concentrations; data not shown; details: both partners purified
# T2 construct: low-molecular-weight (LMW) subunit of the surface layer protein, cut from the precursor SlpA by Cwp84, C. difficile strain 630 (ribotype 012); predicted mass 34.2 kDa; high-molecular-weight (HMW) subunit of the surface layer protein, cut from the precursor SlpA by Cwp84, C. difficile strain 630 (ribotype 012); predicted mass 39.5 kDa; Both subunits come from one precursor, SlpA; source: purified …
# [3] = molecular target: T3, QCD-32g58 LMW SLP (low-molecular-weight subunit of the QCD-32g58 surface layer protein) (Clostridioides difficile QCD-32g58 …, UniProt A0A9R0BMB3, strain); experiment: SPR; Biacore 3000; SEC-purified QCD-32g58 LMW SLP subunit amine-coupled to a CM5 chip; single-concentration screen, 200 nM VHH; 25 °C, 10 mM HEPES pH 7.4, 150 mM NaCl, 3 mM EDTA, 0.005 % P20; details: both partners purified
# T3 construct: low-molecular-weight (LMW) subunit of the surface layer protein, cut from the precursor SlpA by Cwp84, C. difficile strain QCD-32g58 (ribotype 027); predicted mass 33.9 kDa; also called QCD-32g58 SLP LMW subunit; LMW subunit; source: purified from C. difficile QCD-32g58 (low-pH glycine extraction, minor SEC peak at about 15 ml); in the Western blot the LMW band of the extracted SLPs
# [4] = molecular target: T4, SLP on cells of C. difficile strain 196 (ribotype 027) (Clostridioides difficile 196 (ribotype …, UniProt A0A9R0BMB3, strain)); experiment: ELISA; whole cell ELISA: formalin-fixed C. difficile cells coated on MaxiSorp plates, His6-tagged VHH at 10 μg/ml in PBS-T, 37 °C, 1 h, detected with anti-His6-HRP; details: one partner purified
# T4 construct: LMW subunit of the surface layer protein (from the precursor SlpA), C. difficile strain 196, ribotype 027; HMW subunit of the surface layer protein (from the precursor SlpA), C. difficile strain 196, ribotype 027; Whole cells were the antigen; source: endogenous, on formalin-fixed C. difficile 196 cells
# [5] = molecular target: T5, SLP on cells of C. difficile strain BI-7 (ribotype 027) (Clostridioides difficile BI-7 (ribotype …, UniProt A0A9R0BMB3, strain)); experiment: as above; details: one partner purified
# T5 construct: LMW subunit of the surface layer protein (from the precursor SlpA), C. difficile strain BI-7, ribotype 027; HMW subunit of the surface layer protein (from the precursor SlpA), C. difficile strain BI-7, ribotype 027; Whole cells were the antigen; source: endogenous, on formalin-fixed C. difficile BI-7 cells
# [6] = molecular target: T6, SLP on cells of C. difficile strain R20291 (ribotype 027) (Clostridioides difficile R20291 …, UniProt A0A9R0BMB3, strain); experiment: as above; details: one partner purified
# T6 construct: LMW subunit of the surface layer protein (from the precursor SlpA), C. difficile strain R20291, ribotype 027; HMW subunit of the surface layer protein (from the precursor SlpA), C. difficile strain R20291, ribotype 027; Whole cells were the antigen; source: endogenous, on formalin-fixed C. difficile R20291 cells
# [7] = molecular target: T7, SLP on cells of C. difficile strain BI-1 (ribotype 027) (Clostridioides difficile BI-1 (ribotype …, UniProt A0A9R0BMB3, strain)); experiment: as above; details: one partner purified
# T7 construct: LMW subunit of the surface layer protein (from the precursor SlpA), C. difficile strain BI-1, ribotype 027; HMW subunit of the surface layer protein (from the precursor SlpA), C. difficile strain BI-1, ribotype 027; Whole cells were the antigen; source: endogenous, on formalin-fixed C. difficile BI-1 cells
# [8] = molecular target: QCD-32g58 LMW SLP (low-molecular-weight subunit of the QCD-32g58 surface layer protein) (Clostridium difficile strain QCD-32g58); experiment: SPR; Biacore 3000; SEC-purified QCD-32g58 LMW SLP subunit amine-coupled to a CM5 chip; single-concentration screen, 200 nM VHH; 25 °C, 10 mM HEPES pH 7.4, 150 mM NaCl, 3 mM EDTA, 0.005 % P20
# [9] = molecular target: 630 SLP (surface layer protein of C. difficile strain 630, HMW and LMW subunits) (Clostridium difficile strain 630); experiment: SPR; Biacore 3000; 630 SLP immobilised on a CM5 chip, VHHs injected at various concentrations; data not shown
Binder,Kd [1],binding result [2],Kd [3],koff [3],kon [3],binding result [4],binding result [5],binding result [6],binding result [7],Kd [8],koff [8],kon [8],Kd [9]
B1,75 nM,no binding,14 nM,0.0027 s⁻¹,190000 M⁻¹ s⁻¹,binds,binds,binds,binds,,,,
B2,180 nM,no binding,8 nM,0.0011 s⁻¹,130000 M⁻¹ s⁻¹,binds,binds,binds,binds,,,,
B3,580 nM,,,,,binds,binds,binds,binds,460 nM,0.097 s⁻¹,210000 M⁻¹ s⁻¹,2000 nM
